Laboratory results from paper PMC12147180.

Experiments:
CCR9 ΔCT (human) = CCR9 ΔCT (human) (UniProt P51686)
[1] = target: CCR9 C1 + C2 (CCR9-RlucII with all C-tail phosphorylation sites changed to alanine) (human) (UniProt P51686)
[2] = target: CCR9 C1 (CCR9-RlucII with S335A/T347A/S352A/S356A/S357A) (human) (UniProt P51686)
CCR9-RlucII (human) [3] = target: CCR9-RlucII (human) (UniProt P51686)
CCR9-RlucII (human) [4] = target: CCR9-RlucII (human) (UniProt P51686); remark: listed apart in the source

Chain of Gαi-Nluc (P63096 whole entry): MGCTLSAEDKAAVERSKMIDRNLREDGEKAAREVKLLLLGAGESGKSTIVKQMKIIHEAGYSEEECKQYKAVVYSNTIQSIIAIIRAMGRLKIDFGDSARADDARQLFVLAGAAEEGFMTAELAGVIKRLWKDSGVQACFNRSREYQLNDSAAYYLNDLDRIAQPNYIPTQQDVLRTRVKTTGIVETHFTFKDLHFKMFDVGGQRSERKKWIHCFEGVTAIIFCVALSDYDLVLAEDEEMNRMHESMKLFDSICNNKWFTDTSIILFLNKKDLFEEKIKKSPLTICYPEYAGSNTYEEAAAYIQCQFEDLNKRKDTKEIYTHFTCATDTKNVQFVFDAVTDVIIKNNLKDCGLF
Chain of Gαq-Nluc (P50148 whole entry): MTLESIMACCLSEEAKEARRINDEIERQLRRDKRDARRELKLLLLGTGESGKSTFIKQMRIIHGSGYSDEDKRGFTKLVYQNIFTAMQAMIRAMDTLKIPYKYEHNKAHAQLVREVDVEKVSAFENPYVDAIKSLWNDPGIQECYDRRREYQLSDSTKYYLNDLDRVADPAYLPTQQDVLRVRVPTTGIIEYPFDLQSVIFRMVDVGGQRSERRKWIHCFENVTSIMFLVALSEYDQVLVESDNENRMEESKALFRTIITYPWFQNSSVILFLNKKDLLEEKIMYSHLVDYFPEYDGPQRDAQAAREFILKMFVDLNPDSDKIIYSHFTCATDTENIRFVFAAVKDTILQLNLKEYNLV

Substance | area over the Gαi–Gβγ dissociation curve (AOC), against CCR9 WT (CCR9 ΔCT (human)) | maximal decrease in BRET between Gαi-Nluc and Gβγ-smV (G protein dissociation) in HEK293 cells, 100 nM CCL25 (CCR9 ΔCT (human)) | Gαi-Nluc/Gβγ-smV dissociation BRET (AOC) in HEK293 cells with untagged CCR9 C1 + C2, 100 nM CCL25, against CCR9 WT [1] | Gαi-Nluc/Gβγ-smV dissociation BRET (AOC) in HEK293 cells with untagged CCR9 C1, 100 nM CCL25, against CCR9 WT [2] | decrease in BRET between Gαi-Nluc and Gβγ-smV (G protein dissociation) in HEK293 cells with untagged CCR9, 100 nM CCL25; returns to basal levels within 10 min (CCR9-RlucII (human) [3]) | area over the Gαq–Gβγ dissociation curve (AOC), against CCR9 WT (CCR9 ΔCT (human)) | maximal decrease in BRET between Gαq-Nluc and Gβγ-smV (G protein dissociation) in HEK293 cells, 100 nM CCL25 (CCR9 ΔCT (human)) | decrease in BRET between Gαq-Nluc and Gβγ-smV (G protein dissociation) in HEK293 cells with untagged CCR9, 100 nM CCL25 (CCR9-RlucII (human) [4])
Gαi-Nluc (from UniProt P63096 1-354) (natural protein) | 6 fold | 7% | 2 fold | 2 fold | 2% | – | – | –
Gαq-Nluc (from UniProt P50148 1-359) (natural protein) | – | – | – | – | – | 4 fold | 5% | 0%
